According to patent US20240101682A1 (PINETREE THERAPEUTICS, published 2024):
Substitutions are numbered along the chain they refer to. One block for each binder: values may come before it.

Columns and labels:
[1] = biological target: T1, recombinant human EGFR, biotinylated (human, UniProt P00533 25-645, biotinylated (site not stated)); experiment: BLI (Octet Red 96), biotinylated antigen on streptavidin sensor, bsAb in solution, bivalent format
T1 construct: also called huEGFR; recombinant huEGFR

[2] = biological target: T2, recombinant human NRP1, biotinylated (human, UniProt O14786-2 22-644, limits assumed, biotinylated (site not stated)); experiment: as above
T2 construct: also called huNRP1; recombinant NRP1

Kd [1]: < 0.1 nM
Kd [2]: 0.53 nM
B1: bsAb with heavy chain polypeptide SEQ ID NO: 3 and light chain SEQ ID NO: 12 (bispecific antibody, human IgG2, kappa)
heavy: QVQLQESGPGLVKPSETLSLTCTVSGGSVSSGDYYWTWIRQSPGKGLEWIGHIYYSGNTNYNPSLKSRLTISIDTSKTQFSLKLSSVTAADTAIYYCVRDRVTGAFDIWGQGTMVTVSSASTKGPSVFPLAPCSRSTSESTAALGCLVKDYFPEPVTVSWNSGALTSGVHTFPAVLQSSGLYSLSSVVTVPSSNFGTQTYTCNVDHKPSNTKVDKTVERKCCVECPPCPAPPVAGPSVFLFPPKPKDTLMISRTPEVTCVVVDVSHEDPEVQFNWYVDGVEVHNAKTKPREEQFNSTFRVVSVLTVVHQDWLNGKEYKCKVSNKGLPAPIEKTISKTKGQPREPQVYTLPPSREEMTKNQVSLTCLVKGFYPSDIAVEWESNGQPENNYKTTPPMLDSDGSFFLYSKLTVDKSRWQQGNVFSCSVMHEALHNHYTQKSLSLSPGKGGGGSGGGGSGGGGSEVQLVESGGGLVQPGGSLRLSCAASGFTFSSYAMSWVRQAPGKGLEWVSQISPAGGYTNYADSVKGRFTISADTSKNTAYLQMNSLRAEDTAVYYCARGELPYFRMSKVMDVWGQGTLVTVSSGGGGSGGGGSGGGGSDIQMTQSPSSLSASVGDRVTITCRASQFLSSYLAWYQQKPGKAPKLLIYGASARASGVPSRFSGSGSGTDFTLTISSLQPEDFATYYCQQYLASPATFGQGTKVEIK
light: not shown

Kd [1]: < 0.1 nM
B2: bsAb with heavy chain polypeptide SEQ ID NO: 4 and light chain SEQ ID NO: 12 (bispecific antibody, human IgG2, kappa)
heavy: B1 heavy with F564Y, R565Q, F626Y, L627F
light: not shown

Kd [1]: < 0.1 nM
Kd [2]: 0.19 nM
B3: bsAb with heavy chain polypeptide SEQ ID NO: 2 and light chain SEQ ID NO: 12 (bispecific antibody, human IgG2, kappa)
heavy: B1 heavy with F564Y, F626Y, L627F, A651S, A691G, A694P
light: not shown

Kd [2]: 69.7 nM
B4: bsAb with heavy chain polypeptide SEQ ID NO: 1 and light chain SEQ ID NO: 12 (control) (bispecific antibody, human IgG2, kappa)
heavy: QVQLQESGPGLVKPSETLSLTCTVSGGSVSSGDYYWTWIRQSPGKGLEWIGHIYYSGNTNYNPSLKSRLTISIDTSKTQFSLKLSSVTAADTAIYYCVRDRVTGAFDIWGQGTMVTVSSASTKGPSVFPLAPCSRSTSESTAALGCLVKDYFPEPVTVSWNSGALTSGVHTFPAVLQSSGLYSLSSVVTVPSSNFGTQTYTCNVDHKPSNTKVDKTVERKCCVECPPCPAPPVAGPSVFLFPPKPKDTLMISRTPEVTCVVVDVSHEDPEVQFNWYVDGVEVHNAKTKPREEQFNSTFRVVSVLTVVHQDWLNGKEYKCKVSNKGLPAPIEKTISKTKGQPREPQVYTLPPSREEMTKNQVSLTCLVKGFYPSDIAVEWESNGQPENNYKTTPPMLDSDGSFFLYSKLTVDKSRWQQGNVFSCSVMHEALHNHYTQKSLSLSPGKGGGGSGGGGSGGGGSHTPGNSKPTRTPRR
light: not shown
